Measurements reported in patent US11312781B2, “Antigen binding molecules that bind LIGHT” (Capella Bioscience Ltd., priority 2018, dated 2022).
Positions count from the first letter of the chain named. Values belong to the molecule of their own block, whether it stands above or below them.

Columns and labels:
[1] = tested on: wild type and mutated membrane LIGHT; assay: Alanine scanning mutagenesis of membrane LIGHT and flow cytometry (HEK293FF cells); format: binding, human; conditions: single substitutions F57A to E86A and four amino acid substitutions 60-63 to 96-99
Excerpt: The full length LIGHT gene was synthesized by GeneArt (ThermoFisher Scientific) and cloned into the mammalian expression vector pcDNA 3.1(+). The following Ala mutations were introduced into the LIGHT gene: 30 single amino acid alanine substitutions from F57A to E86A; 2 single amino acid alanine substitutions; G188A, R189A; one serine substitution, A190S; 17 single amino acid alanine substitutions; T191A to V207A and 10 four amino acid alanine substitutions, 60-63, 64-67, 68-71, 72-75, 76-79, 80-83, 84-87, 88-91, 92-95 and 96-99. Constructs were reconstituted according to manufacture instructions, using DEPC-treated and sterile filtered water. Competent TOP10 E. coli cells were transformed with 100 ng of each construct and a single colony from each construct was picked and used to inoculate 10 ml of LB/carb100/glu2% medium and grown overnight at 37° C., 200 rpm. The extraction of the construct DNA was performed using the Qiagen QIAprep Spin Miniprep Kit (250) and the concentration was determined by measuring the O.D. at 260 nm in a spectrophotometer.
HEK293FF cells were cultured in Freestyle™293 expression medium (ThermoFisher scientific cat. no. 12338018) supplemented with 2 mM L-Glutamine. The day of transfection the cells were seeded in a 24-well plate at 0.6×10^6 cells/well. Lipofectamine 2000 (ThermoFisher scientific), 3 μl, was mixed with 50 μl OptiMEM medium (GIBCO) and then added to 50 μl Opti-MEM medium containing 3 ug plasmid DNA and incubated for 20 min at RT to form DNA-Lipofectamine 2000 complexes which were then added to the HEK293FF cells and incubated at 37° C., 5% CO2 for 24 hours. For each construct, in duplicate, 0.60×10^6 cells/well were used in a 96 well round bottom plate. Cells were centrifuged for 3 minutes at 300×g at 4° C., the supernatant discarded and the cells washed with 150 μl FACS buffer (0.5% FBS in phosphate buffered saline). This process was repeated 3 times. For each construct, […] cells/well were incubated with anti-LIGHT antibodies at the EC50 concentration and with positive controls of anti-LIGHT mAb MAB664 (R&D Systems), mAb F19 (EP2292663) or LTBR-Fc (R&D Systems), in a final volume of 50 μl/well for 30 min at 4° C., with shaking. The wells were washed 3 times as above and 50 μl/well of goat anti-human IgG FITC (1:1500 dilution in FACS buffer, SIGMA F9512-2ML) or goat anti-mouse APC (1/500 dilution in FACS buffer, BDBioscience 550826), as appropriate, was added to the wells and incubated for 30 min at 4° C. protected from the light, with shaking. The cells were then washed as above, resuspended in 100 μl of FACS buffer and binding of the antibodies to the constructs was measured using flow cytometry and a total of 10,000 cells were acquired for each sample. Controls of buffer and secondary antibody only as well as HEK293FF non transfected cells were also used.
All of the mAbs of this invention show a similar profile in that their epitope is located at amino acids 188-197 of LIGHT. […] The epitope of the mAbs of this invention defined by alanine scanning mutagenesis are residues 188-197 of LIGHT. This is visually depicted in FIG. 8 utilising a 3D visualisation of the LIGHT trimer from the crystal structure of LIGHT from Liu et al. (Structure 22: 1252-62; 2014). This would result in the mAbs binding to the “tip” of the LIGHT trimer and explaining the 1:1 binding. The impact of this epitope would result in […] less dosing of mAb 3B04 being required to neutralise membrane LIGHT compared to, for example, mAbs F19 and F23 (of EP2292663) which bind both soluble and membrane LIGHT equally and bind LIGHT in the ratio 3:1.

[2] = molecular target: T1, soluble LIGHT amino acids 74-240 (Homo sapiens, UniProt O43557, K214E); assay: BIAcore (SPR) binding to soluble LIGHT 74-240
T1 construct: amino acids 74-240 LIGHT (R&D Systems, 664-LI-025); purchased R&D Systems 664-LI-025
T1 sequence (O43557 74-240 K214E): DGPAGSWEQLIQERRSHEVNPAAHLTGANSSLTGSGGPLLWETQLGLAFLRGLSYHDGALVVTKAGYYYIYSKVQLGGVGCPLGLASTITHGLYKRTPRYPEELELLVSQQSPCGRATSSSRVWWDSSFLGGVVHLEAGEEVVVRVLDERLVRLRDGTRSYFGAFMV
Method: (§1) Real-time binding interactions between captured antibody (chimeric anti-membrane LIGHT monoclonal antibody) captured on a biosensor matrix via goat anti-human Fc IgG and recombinant soluble LIGHT were measured by surface plasmon resonance (SPR) using the BIAcore system (GE Healthcare) according to manufacturer's instructions and standard procedures. Briefly, soluble LIGHT was diluted in HBS running buffer (GE Healthcare) and aliquots were injected through the immobilized protein matrices at a flow rate of […]. BIAevaluation software was used to calculate association rate (ka), dissociation rate (kd) and affinity (KD).
(§2) The specificity of two lead anti-membrane LIGHT mAbs to soluble LIGHT was determined by BIAcore analysis and compared to the KD calculated from the EC50 values in Table 7 (results in Table 9). In brief, mAbs 3D12, 3B04 were compared to a mAb that binds both soluble and membrane LIGHT, F19, (F19 IgG4 mAb from EP2292663). An irrelevant anti-HEL mAb, 2A11, was used as a negative control. The mAbs were captured on an anti-human Fc mAb coated chip and soluble LIGHT was passed over the surface and the kinetic parameters were calculated using BIAcore 3000 software. The soluble LIGHT preparations used were amino acids 74-240 LIGHT (R&D Systems, 664-LI-025) and 64-240 LIGHT (Abcam, ab82123).

[3] = molecular target: T2, soluble LIGHT amino acids 64-240 (Homo sapiens, UniProt O43557); assay: BIAcore (SPR) binding to soluble LIGHT 64-240
T2 construct: 64-240 LIGHT (Abcam, ab82123); purchased Abcam ab82123
T2 sequence (O43557 64-240): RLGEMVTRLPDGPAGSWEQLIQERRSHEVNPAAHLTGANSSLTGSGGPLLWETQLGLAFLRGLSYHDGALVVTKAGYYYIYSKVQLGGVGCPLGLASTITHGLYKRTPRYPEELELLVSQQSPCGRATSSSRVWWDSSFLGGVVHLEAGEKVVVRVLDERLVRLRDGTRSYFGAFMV
Method: as §1, §2

B1: 3B04: parental mouse anti-membrane LIGHT antibody, VL SEQ ID NO 1, VH SEQ ID NO 5; tested as chimeric human IgG4 mAb (antibody, listed as Homo sapiens, V domains shown)
VH: QVQLQQPGAELVRPGASVTLSCKASGYTFTDYEMHWVKQTPVHGLEWIGEIDPETGDTAYSQKFKGKATLTADKSSSTAYMEFRSLTSEDSAVYYCSRETDYFFDYWGQGTTLTVSS
VL: DIQMTQTPASLSASVGETVTITCGASENIYGALNWYQRKQGKSPQLLIYGATNLADGMSSRFSGSGSGRQYSLKISSLHPDDFATYYCQNVLTTPWTFGGGTKLEIKR
Binding to LIGHT alanine substitution constructs versus WT LIGHT [1]: no difference in binding
74-240 LIGHT Ka [2]: 222000 M⁻¹ s⁻¹
74-240 LIGHT Kd [2]: 0.00348 s⁻¹
64-240 LIGHT Ka [3]: 251000 M⁻¹ s⁻¹
64-240 LIGHT Kd [3]: 0.00345 s⁻¹

74-240 LIGHT Ka [2]: 168000 M⁻¹ s⁻¹
64-240 LIGHT Ka [3]: 219000 M⁻¹ s⁻¹
64-240 LIGHT Kd [3]: 0.00234 s⁻¹
B2: 3D12: parental mouse anti-membrane LIGHT antibody, VL SEQ ID NO 41, VH SEQ ID NO 45; tested as chimeric human IgG4 mAb (antibody, listed as Homo sapiens, V domains shown)
VH: B1 VH with G26D, Y32S, M34I, D57G, S61N, F83L
VL: B1 VL with T7S, F83V, T93S
Binding to LIGHT alanine substitution constructs versus WT LIGHT [1]: no difference in binding
